Literature values as cited in article PMC4115291 (Nature communications, 2014).

Test system: mice

In the case of β-Diguetoxin-Dc1a, the “effect in mice, injected intracerebroventricularly (in words)” value (1.0 mg/kg intracerebroventricularly) is given as “no effect” and the “effect in mice, injected intraperitoneally (in words)” value (4.1 mg/kg intraperitoneally) is given as “no effect”.
